What was measured:
Assay in all cases: SPR, mAb captured, C2 mutant analyte;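 note: Anti-C2 mAbs captured on goat anti-human IgG Biacore CM5 chips, alanine or serine C2 surface mutants flowed over at 37 °C, double-referenced sensorgrams fitted to a 1:1 binding model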
human C2 L453A = target: T1, human C2 L453A (human, UniProt P06681 21-752)
T1 sequence: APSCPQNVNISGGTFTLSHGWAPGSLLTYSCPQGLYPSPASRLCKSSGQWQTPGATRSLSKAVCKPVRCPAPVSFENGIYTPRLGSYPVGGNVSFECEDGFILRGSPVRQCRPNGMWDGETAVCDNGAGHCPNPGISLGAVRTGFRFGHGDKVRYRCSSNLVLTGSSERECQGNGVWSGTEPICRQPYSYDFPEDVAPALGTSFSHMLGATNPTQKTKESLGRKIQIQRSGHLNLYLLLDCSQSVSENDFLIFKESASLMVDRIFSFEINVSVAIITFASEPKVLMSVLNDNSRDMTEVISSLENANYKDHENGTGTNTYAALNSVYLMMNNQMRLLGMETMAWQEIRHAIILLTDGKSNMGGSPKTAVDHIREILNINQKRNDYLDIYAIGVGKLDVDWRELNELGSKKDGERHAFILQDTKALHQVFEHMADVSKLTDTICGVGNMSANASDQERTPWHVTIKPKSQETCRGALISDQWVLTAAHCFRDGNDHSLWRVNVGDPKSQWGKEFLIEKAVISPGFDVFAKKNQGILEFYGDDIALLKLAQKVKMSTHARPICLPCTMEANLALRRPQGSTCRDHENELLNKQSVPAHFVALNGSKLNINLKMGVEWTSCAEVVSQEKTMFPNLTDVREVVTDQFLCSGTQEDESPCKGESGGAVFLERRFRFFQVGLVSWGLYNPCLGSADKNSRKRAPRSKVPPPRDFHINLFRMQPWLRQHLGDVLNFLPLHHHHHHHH
Experimental: (§1) Surface plasmon resonance (SPR, Biacore) was used for all binding affinity analyses. In brief, goat anti-human IgG was directly immobilised onto the carboxymethyl dextran surface of CM5 sensorchips to approximately 12,000 RU using standard NHS/EDC chemistry at pH 5. The immobilised antibody surface was pre-conditioned with ten injections of polyclonal human IgG (Privigen 60 s) prepared at 1 μg/mL. Ligands (anti-C2 mAbs) were captured at the beginning of each cycle as described below. An adjacent spot or flow cell in which only Polyclonal IgG was capture was used as a reference surface. The goat anti-human IgG Fc antibody surface was regenerate in 100 mM H3PO4, injected for 45 seconds at the end of each cycle. Experiments were performed at 37° C. and the flow rate of each experiment was kept constant at 30 μL/min.
(§2) Sensogram data was double-referenced against a reference anti-IgG surface (i.e. minus anti-C2 mAb) and blank buffer injections obtained within each experiment. The binding data was fit to 1:1 (kinetic or steady-state) model using local Rmax and null refraction index (RI=0) when appropriate. Buffers and solutions were filtered (0.22 μm) prior to use.

human C2 F270A = target: T2, human C2 F270A (human, UniProt P06681 21-752)
T2 sequence: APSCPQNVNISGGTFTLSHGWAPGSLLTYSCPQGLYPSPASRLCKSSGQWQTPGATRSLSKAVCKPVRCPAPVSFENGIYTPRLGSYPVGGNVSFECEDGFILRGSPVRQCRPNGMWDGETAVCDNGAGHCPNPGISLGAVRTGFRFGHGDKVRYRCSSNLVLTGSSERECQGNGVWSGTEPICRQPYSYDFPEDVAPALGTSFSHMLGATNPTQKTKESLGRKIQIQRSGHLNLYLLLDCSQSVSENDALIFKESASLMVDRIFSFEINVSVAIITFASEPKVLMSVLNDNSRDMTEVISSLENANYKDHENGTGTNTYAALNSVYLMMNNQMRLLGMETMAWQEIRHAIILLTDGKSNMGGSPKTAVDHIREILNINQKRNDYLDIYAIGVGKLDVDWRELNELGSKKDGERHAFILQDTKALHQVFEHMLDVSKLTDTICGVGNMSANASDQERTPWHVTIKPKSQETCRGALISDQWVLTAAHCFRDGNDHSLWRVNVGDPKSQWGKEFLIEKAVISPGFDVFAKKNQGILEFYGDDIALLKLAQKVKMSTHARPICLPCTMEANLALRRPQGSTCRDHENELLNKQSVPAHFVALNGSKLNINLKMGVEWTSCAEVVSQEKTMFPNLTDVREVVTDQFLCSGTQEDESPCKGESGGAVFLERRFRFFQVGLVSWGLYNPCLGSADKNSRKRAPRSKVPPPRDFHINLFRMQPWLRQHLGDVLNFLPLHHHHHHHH
Experimental: as §1, §2

human C2 K244A = target: T3, human C2 K244A (human, UniProt P06681 21-752)
T3 sequence: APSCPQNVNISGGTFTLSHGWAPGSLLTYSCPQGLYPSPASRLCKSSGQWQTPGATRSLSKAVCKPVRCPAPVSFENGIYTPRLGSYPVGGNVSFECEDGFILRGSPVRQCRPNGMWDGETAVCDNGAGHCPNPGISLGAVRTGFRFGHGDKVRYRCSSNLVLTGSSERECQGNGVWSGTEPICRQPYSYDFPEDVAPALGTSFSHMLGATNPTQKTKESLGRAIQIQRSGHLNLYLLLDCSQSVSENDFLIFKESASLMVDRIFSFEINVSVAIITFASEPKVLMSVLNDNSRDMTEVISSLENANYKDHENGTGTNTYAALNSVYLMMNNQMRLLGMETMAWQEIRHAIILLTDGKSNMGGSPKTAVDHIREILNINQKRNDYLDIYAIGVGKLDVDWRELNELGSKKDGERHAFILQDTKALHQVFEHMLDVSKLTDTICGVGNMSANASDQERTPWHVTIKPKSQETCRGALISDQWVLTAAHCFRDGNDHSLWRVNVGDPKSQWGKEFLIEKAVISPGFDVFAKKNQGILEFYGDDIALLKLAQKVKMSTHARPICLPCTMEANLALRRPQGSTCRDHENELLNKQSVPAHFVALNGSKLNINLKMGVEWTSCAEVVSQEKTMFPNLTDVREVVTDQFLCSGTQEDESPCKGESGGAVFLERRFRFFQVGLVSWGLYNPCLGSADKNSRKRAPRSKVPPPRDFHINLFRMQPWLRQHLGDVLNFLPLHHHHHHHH
Experimental: as §1, §2

human C2 S469A = target: T4, human C2 S469A (human, UniProt P06681 21-752)
T4 sequence: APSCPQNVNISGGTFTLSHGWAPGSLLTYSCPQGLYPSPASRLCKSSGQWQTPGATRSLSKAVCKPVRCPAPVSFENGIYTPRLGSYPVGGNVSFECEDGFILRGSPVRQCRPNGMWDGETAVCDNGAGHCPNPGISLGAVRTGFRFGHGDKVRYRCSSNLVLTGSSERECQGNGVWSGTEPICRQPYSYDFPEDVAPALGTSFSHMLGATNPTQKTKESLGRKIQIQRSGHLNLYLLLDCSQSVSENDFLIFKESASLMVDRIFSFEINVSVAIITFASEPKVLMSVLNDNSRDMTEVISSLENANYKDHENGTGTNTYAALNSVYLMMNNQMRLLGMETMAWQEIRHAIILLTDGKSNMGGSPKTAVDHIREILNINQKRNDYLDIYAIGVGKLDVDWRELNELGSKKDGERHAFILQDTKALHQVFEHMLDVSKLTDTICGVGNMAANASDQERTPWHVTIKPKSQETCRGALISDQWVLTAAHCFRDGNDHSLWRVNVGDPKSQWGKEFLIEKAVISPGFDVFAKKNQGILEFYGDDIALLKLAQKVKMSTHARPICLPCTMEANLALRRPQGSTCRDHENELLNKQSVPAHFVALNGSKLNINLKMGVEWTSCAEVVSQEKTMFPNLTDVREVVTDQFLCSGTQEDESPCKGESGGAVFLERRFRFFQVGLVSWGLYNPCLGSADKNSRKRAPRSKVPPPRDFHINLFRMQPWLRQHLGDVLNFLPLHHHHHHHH
Experimental: as §1, §2

Kd (human C2 L453A): 1.41 µM | binding result (human C2 F270A): no binding | Kd (human C2 K244A): 0.0971 µM | Kd (human C2 S469A): 0.106 µM
B1: RF16-214 (antibody, V domains shown)
VH: EVQLLESGGGLVQPGGSLRLSCAASGFTFSWYQMMWVRQAPGKGLEWVSRIYPSGGGTAYADSVKGRFTISRDNSKNTLYLQMNSLRAEDTAVYYCARDAGYGDNWGQGTLVTVSS
VL: QSALTQPPSVSVSPGQTASITCSGDKLGEKYASWYQQKAGQSPVMVIYQDRKRPSGIPERFSGSNSGNTATLTISGTQAMDEADYYCQAWDTRAVVFGGGTKLTVLG

Source: patent US20220332804A1 (CSL INNOVATION, published 2022)
